According to the supplement of paper PMC6757056:
± gives the standard deviation of the averaged measurements.

B1: library; a variant is named by its letters at N, in order (parent)
chain: GCUGUCACCGGUGUAUUACCCUAGUGGUCGACCGGUCUGAUGAGUCUNNNNNNAGACGAAACAGC

Assays:
[1] = variants of: B1; assay: normalized RNA/DNA level with ligand (relative to sTRSVctl = 100) (log10 (% of sTRSVctl)); ligand: hypoxanthine (xanthine aptamer); higher = less ribozyme self-cleavage, higher mRNA level; conditions: ligand concentration (+) RNA-Seq: 5 mM, HEK293T, reporter: mCherry (pCS4076), ligand present: yes
Procedure, shortened: (§1)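 RNA level was computed as RNA reads over DNA reads divided by a spiked-in non-cleaving sequence or by the top sequences, then scaled and log-transformed. Scaling was ×100 with log10, the top group was 25 sequences, and the threshold was ≥100 DNA reads. The reads came from HEK293T cells transfected at 4 µg per 6-well well with ribozyme switch library plasmids (mCherry, or eGFP in some ligand experiments). Total RNA was extracted with EDTA 72 h after transfection, with any ligand added 1 h before it.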

[2] = variants of: B1; assay: normalized RNA/DNA level without ligand (relative to sTRSVctl = 100) (log10 (% of sTRSVctl)); ligand: hypoxanthine (xanthine aptamer); higher = less ribozyme self-cleavage, higher mRNA level; conditions: HEK293T, reporter: mCherry (pCS4076), ligand present: no
Procedure, shortened: as §1

Row | Variant | normalized RNA/DNA level with ligand (log10) [1] | normalized RNA/DNA level without ligand (log10) [2]
1 | CGGCGG | 1.889 ± 0.0076 | 1.48 ± 0.11
2 | UGCUGC | 1.972 ± 0.011 | 1.958 ± 0.006
3 | UGCUGG | 1.95 ± 0.04 | 1.707 ± 0.011
4 | UGCUGU | 1.95 ± 0.0027 | 1.92 ± 0.03
5 | CGGACG | 2.01 ± 0.03 | 1.72 ± 0.043
6 | CGGACU | 1.95 ± 0.042 | 1.79 ± 0.024
7 | CGGACC | 1.94 ± 0.037 | 1.94 ± 0.049
8 | AGGAAU | 1.906 ± 0.017 | 1.739 ± 0.0039
9 | CGCGCA | 1.97 ± 0.063 | 1.81 ± 0.036
10 | CGCGCG | 1.9548 ± 0.00063 | 1.78 ± 0.035
11 | CGCGCU | 1.92 ± 0.076 | 1.93 ± 0.062
12 | UGCACU | 1.94 ± 0.088 | 1.9 ± 0.0073
13 | UGCACA | 1.934 ± 0.019 | 1.843 ± 0.0094
14 | UGCACG | 1.923 ± 0.014 | 1.76 ± 0.038
15 | UGCACC | 1.92 ± 0.057 | 1.93 ± 0.024
16 | AGCGAU | 1.9 ± 0.037 | 1.73 ± 0.076
17 | CGCUGU | 1.94 ± 0.06 | 1.9375 ± 0.00087
18 | CGCUGG | 1.889 ± 0.0061 | 1.42 ± 0.024
19 | AGCAGU | 1.83 ± 0.03 | 1.44 ± 0.036
20 | CGCACC | 1.93 ± 0.093 | 1.9 ± 0.028
21 | CGCACA | 1.92 ± 0.024 | 1.738 ± 0.016
22 | CGCACG | 1.95 ± 0.089 | 1.87 ± 0.044
23 | CGCACU | 2 ± 0.11 | 1.89 ± 0.066
24 | UGCUAA | 1.92 ± 0.066 | 1.832 ± 0.0053

Row | Variant | normalized RNA/DNA level with ligand (log10) [1] | normalized RNA/DNA level without ligand (log10) [2]
25 | UGCUAG | 1.94 ± 0.025 | 1.658 ± 0.0069
26 | UGCUAC | 1.937 ± 0.0075 | 1.847 ± 0.014
27 | UGCGAC | 1.96 ± 0.0073 | 1.77 ± 0.028
28 | UGCGAU | 1.933 ± 0.011 | 1.79 ± 0.081
29 | UGCGAG | 1.868 ± 0.0049 | 1.658 ± 0.009
30 | UGCGAA | 1.86 ± 0.021 | 1.724 ± 0.013
31 | GGCCCG | 1.974 ± 0.011 | 1.88 ± 0.03
32 | GGCCCU | 2.037 ± 0.02 | 2 ± 0.034
33 | GGCCCA | 1.95 ± 0.026 | 1.97 ± 0.024
34 | GGCCCC | 1.95 ± 0.12 | 1.97 ± 0.021
35 | GGGCGA | 1.99 ± 0.057 | 1.88 ± 0.038
36 | GGGCGC | 1.929 ± 0.013 | 1.7 ± 0.032
37 | GGGCGU | 2 ± 0.0057 | 1.96 ± 0.049
38 | CGGCAA | 1.88 ± 0.024 | 1.529 ± 0.011
39 | CGGCAC | 1.923 ± 0.016 | 1.733 ± 0.0076
40 | UGGCGC | 2 ± 0.04 | 2 ± 0.027
41 | UGGCGG | 1.97 ± 0.14 | 1.69 ± 0.024
42 | AGCCUA | 1.987 ± 0.019 | 1.87 ± 0.028
43 | AGCCUC | 2.01 ± 0.082 | 1.959 ± 0.019
44 | AGCAUC | 2.07 ± 0.038 | 1.96 ± 0.025
45 | CGCCCU | 2.077 ± 0.0049 | 1.952 ± 0.014
46 | CGCCCA | 1.96 ± 0.06 | 1.92 ± 0.041
47 | CGCCCG | 1.958 ± 0.0098 | 1.915 ± 0.005
48 | CGCCCC | 1.971 ± 0.013 | 1.922 ± 0.0052

Row | Variant | normalized RNA/DNA level with ligand (log10) [1] | normalized RNA/DNA level without ligand (log10) [2]
49 | UGGACC | 1.98 ± 0.049 | 1.95 ± 0.017
50 | UGGACA | 1.95 ± 0.021 | 1.812 ± 0.0084
51 | UGGACU | 1.93 ± 0.033 | 1.9 ± 0.032
52 | CGCGAC | 1.97 ± 0.067 | 1.75 ± 0.059
53 | CGCGAU | 1.904 ± 0.0019 | 1.79 ± 0.036
54 | CGCGAG | 1.84 ± 0.06 | 1.67 ± 0.011
55 | CGCGAA | 1.87 ± 0.029 | 1.7 ± 0.028
56 | GGCUCU | 2.03 ± 0.066 | 1.99 ± 0.064
57 | GGCUCC | 1.989 ± 0.014 | 1.898 ± 0.018
58 | GGCUCG | 1.98 ± 0.027 | 1.834 ± 0.012
59 | AGGCGA | 1.92 ± 0.066 | 1.557 ± 0.0027
60 | AGGCGC | 1.962 ± 0.0082 | 1.87 ± 0.031
61 | GGCGUU | 2.0064 ± 0.00076 | 1.966 ± 0.011
62 | GGCGUC | 1.94 ± 0.073 | 1.901 ± 0.014
63 | GGCGUA | 1.908 ± 0.015 | 1.858 ± 0.00033
64 | AGGCAA | 1.886 ± 0.0036 | 1.74 ± 0.036
65 | AGGCAC | 1.94 ± 0.021 | 1.83 ± 0.042
66 | UGCCAU | 1.909 ± 0.0083 | 1.817 ± 0.015
67 | UGCCAA | 1.906 ± 0.018 | 1.84 ± 0.021
68 | CGCCAA | 1.94 ± 0.02 | 1.82 ± 0.064
69 | CGCCAC | 1.92 ± 0.043 | 1.84 ± 0.05
70 | CGCCAU | 1.88 ± 0.046 | 1.87 ± 0.021
71 | AGCGUA | 1.94 ± 0.027 | 1.77 ± 0.034
72 | AGCGUU | 1.93 ± 0.028 | 1.805 ± 0.011

Row | Variant | normalized RNA/DNA level with ligand (log10) [1] | normalized RNA/DNA level without ligand (log10) [2]
73 | UGGCCU | 1.98 ± 0.043 | 2.008 ± 0.0053
74 | UGGCCC | 2.02 ± 0.022 | 1.99 ± 0.044
75 | UGGCCA | 1.97 ± 0.033 | 1.92 ± 0.046
76 | UGGCCG | 2.015 ± 0.00026 | 1.956 ± 0.006
77 | CGCCGG | 1.913 ± 0.0023 | 1.61 ± 0.065
78 | CGCCGA | 2.04 ± 0.052 | 1.89 ± 0.042
79 | CGCCGC | 1.97 ± 0.063 | 1.923 ± 0.0072
80 | CGCCGU | 1.986 ± 0.014 | 2 ± 0.043
81 | GGCAUC | 1.97 ± 0.074 | 1.91 ± 0.057
82 | GGCAUU | 1.958 ± 0.0075 | 1.925 ± 0.0063
83 | GGCAUA | 1.941 ± 0.0052 | 1.86 ± 0.032
84 | AGCGCC | 1.93 ± 0.034 | 1.86 ± 0.04
85 | AGCGCA | 1.94 ± 0.019 | 1.758 ± 0.0078
86 | UGCCGU | 1.9 ± 0.027 | 1.74 ± 0.026
87 | UGCCGA | 1.94 ± 0.024 | 1.678 ± 0.014
88 | UGCCGC | 2.01 ± 0.032 | 1.927 ± 0.014
89 | AGCCAC | 1.931 ± 0.014 | 1.8318 ± 6.2e-05
90 | AGCUAA | 1.912 ± 0.0024 | 1.845 ± 0.013
91 | AGCUAU | 1.96 ± 0.012 | 1.825 ± 0.0081
92 | AGCUAG | 1.83 ± 0.066 | 1.508 ± 0.0088
93 | CGCAUG | 1.93 ± 0.059 | 1.81 ± 0.057
94 | CGCAUA | 1.9 ± 0.052 | 1.69 ± 0.033
95 | CGCAUU | 1.942 ± 0.0093 | 1.82 ± 0.036
96 | AGGCCC | 1.99 ± 0.038 | 1.95 ± 0.044

Row | Variant | normalized RNA/DNA level with ligand (log10) [1] | normalized RNA/DNA level without ligand (log10) [2]
97 | GGGAUA | 1.95 ± 0.053 | 1.69 ± 0.0074
98 | GGGAUC | 1.94 ± 0.075 | 1.861 ± 0.018
99 | GGGAUU | 1.9914 ± 0.00078 | 1.817 ± 0.014
100 | GGCCGG | 1.95 ± 0.039 | 1.84 ± 0.026
101 | GGCCGC | 1.879 ± 0.014 | 1.7 ± 0.06
102 | GGCCGA | 1.98 ± 0.038 | 1.854 ± 0.014
103 | AGCACU | 1.96 ± 0.039 | 1.8853 ± 0.00075
104 | CGCGUC | 1.97 ± 0.075 | 2.01 ± 0.061
105 | CGCGUG | 1.97 ± 0.068 | 1.73 ± 0.082
106 | CGCGUU | 1.99 ± 0.054 | 1.905 ± 0.0075
107 | UGCUCG | 1.941 ± 0.016 | 1.77 ± 0.046
108 | UGCUCU | 1.91 ± 0.042 | 1.949 ± 0.017
109 | UGCUCC | 1.972 ± 0.002 | 1.94 ± 0.037
110 | CGCCUU | 1.94 ± 0.033 | 1.92 ± 0.068
111 | CGCCUA | 1.98 ± 0.092 | 1.848 ± 0.014
112 | CGCCUG | 2 ± 0.053 | 1.9 ± 0.04
113 | CGCUUC | 1.996 ± 0.0043 | 1.92 ± 0.14
114 | CGCUUU | 1.911 ± 0.01 | 1.859 ± 0.009
115 | CGCUUG | 1.91 ± 0.07 | 1.93 ± 0.076
116 | CGCUUA | 1.861 ± 0.0029 | 1.7 ± 0.036
